In patent publication US7541034 (US Dept. of Health and Human Services, dated 2009):

What was measured:
[1] = molecular target: T1, CD22 (human, on CA46, Daudi and other human B-cell lines and on fresh patient leukemia cells) (human, UniProt P20273 20-847); test: competition of unlabelled IgG against 125I-labelled RFB4 IgG on Daudi cells, 4 C, gamma counting
T1 construct: whole, on cells; also called CD22 antigen
T1 sequence (looked up): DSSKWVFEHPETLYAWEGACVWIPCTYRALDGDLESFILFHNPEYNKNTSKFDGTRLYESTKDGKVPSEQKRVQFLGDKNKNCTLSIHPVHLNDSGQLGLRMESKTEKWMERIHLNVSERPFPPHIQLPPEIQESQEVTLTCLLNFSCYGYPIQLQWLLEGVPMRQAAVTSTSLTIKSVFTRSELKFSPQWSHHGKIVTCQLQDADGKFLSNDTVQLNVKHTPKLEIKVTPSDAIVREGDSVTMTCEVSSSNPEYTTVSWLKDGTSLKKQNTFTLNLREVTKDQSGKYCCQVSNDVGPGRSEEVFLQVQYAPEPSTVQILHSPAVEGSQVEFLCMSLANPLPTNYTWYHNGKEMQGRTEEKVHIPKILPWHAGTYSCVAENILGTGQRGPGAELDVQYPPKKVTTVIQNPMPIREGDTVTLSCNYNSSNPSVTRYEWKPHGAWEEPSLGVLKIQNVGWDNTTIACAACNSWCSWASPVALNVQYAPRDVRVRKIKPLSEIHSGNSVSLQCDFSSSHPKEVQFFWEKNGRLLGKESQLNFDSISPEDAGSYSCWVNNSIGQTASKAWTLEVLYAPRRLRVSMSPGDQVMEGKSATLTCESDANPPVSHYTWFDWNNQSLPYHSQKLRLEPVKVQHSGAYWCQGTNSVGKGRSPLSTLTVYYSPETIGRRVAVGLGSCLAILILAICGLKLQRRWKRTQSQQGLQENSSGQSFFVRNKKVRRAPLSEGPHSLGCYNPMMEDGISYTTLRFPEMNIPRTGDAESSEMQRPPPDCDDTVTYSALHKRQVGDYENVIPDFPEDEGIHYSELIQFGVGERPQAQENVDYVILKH

[2] = molecular target: T1, CD22 (human, on CA46, Daudi and other …); test: competition of unlabelled IgG against 125I-labelled RFB4 IgG on CA46 cells, 4 C, gamma counting
murine CD22 = molecular target: T2, murine CD22 (murine, UniProt P35329 22-708); test: not described (told as the reason for the choice of monkeys)
T2 sequence (looked up): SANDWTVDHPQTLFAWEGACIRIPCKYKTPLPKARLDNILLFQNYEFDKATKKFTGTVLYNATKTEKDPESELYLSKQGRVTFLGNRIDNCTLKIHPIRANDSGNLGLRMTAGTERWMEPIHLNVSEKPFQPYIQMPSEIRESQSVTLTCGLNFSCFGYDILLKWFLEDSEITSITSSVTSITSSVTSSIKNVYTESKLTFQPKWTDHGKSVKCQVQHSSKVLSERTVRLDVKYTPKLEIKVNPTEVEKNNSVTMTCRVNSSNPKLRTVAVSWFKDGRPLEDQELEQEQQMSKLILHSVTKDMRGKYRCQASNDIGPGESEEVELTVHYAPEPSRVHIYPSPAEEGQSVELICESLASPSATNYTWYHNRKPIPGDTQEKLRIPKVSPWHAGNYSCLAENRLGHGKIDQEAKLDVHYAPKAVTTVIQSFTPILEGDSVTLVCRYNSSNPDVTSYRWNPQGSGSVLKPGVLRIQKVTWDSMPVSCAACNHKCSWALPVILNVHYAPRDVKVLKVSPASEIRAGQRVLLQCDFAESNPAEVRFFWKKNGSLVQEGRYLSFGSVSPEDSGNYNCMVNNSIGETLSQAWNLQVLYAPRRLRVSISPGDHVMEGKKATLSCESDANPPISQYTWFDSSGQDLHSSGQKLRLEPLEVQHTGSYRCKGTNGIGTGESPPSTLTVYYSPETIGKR

B1: RFB4 IgG (antibody, V domains shown)
VH: EVQLVESGGGLVKPGGSLKLSCAASGFAFSIYDMSWVRQTPEKRLEWVAYISSGGGTTYYPDTVKGRFTISRDNAKNTLYLQMSSLKSEDTAMYYCARHSGYGSSYGVLFAYWGQGTLVTVSA
VL: DIQMTQTTSSLSASLGDRVTISCRASQDISNYLNWYQQKPDGTVKLLIYYTSILHSGVPSRFSGSGSGTDYSLTISNLEQEDFATYFCQQGNTLPWTFGGGTKLEIK
notes: also called RFB4 mAb; native RFB4 IgG
- IC50 [1]: 10 nM
- IC50 [2]: 4.5 nM
- binding result (murine CD22): no binding
